Experiment in all cases: high-throughput RNA pulldown from lysate on Ni-NTA beads; HRP: 50 mM Tris pH 8, 150 mM NaCl, 1 mM beta-mercaptoethanol, 50 ug/ml BSA, 3 ug/ml yeast RNA, 0.5% heparin; ITC and FP: Tris pH 8, 200 mM KCl, 5% glycerol; MST: 50 mM Tris pH 8, 200 mM NaCl, 1 mM DTT, BSA, heparin, 0.05% Tween 20
Common to all, as to conditions: tags: N-terminal His-eGFP

The target of data set [1] is T1, GFP-9S library array, motif 4 ND N98P;D124H (synthetic construct, N98P;D124H).
T1 chain: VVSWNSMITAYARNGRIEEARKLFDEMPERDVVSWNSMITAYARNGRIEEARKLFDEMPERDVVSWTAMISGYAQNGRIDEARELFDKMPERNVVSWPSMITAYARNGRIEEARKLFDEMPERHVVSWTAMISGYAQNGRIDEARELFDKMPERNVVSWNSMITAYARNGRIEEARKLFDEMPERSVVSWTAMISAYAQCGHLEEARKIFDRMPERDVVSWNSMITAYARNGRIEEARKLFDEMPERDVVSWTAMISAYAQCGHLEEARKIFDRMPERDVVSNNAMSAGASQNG

In data set [2] the target is T2, GFP-9S library array, motif 4 ND N98Y;D124P (synthetic construct, N98Y;D124P).
T2 chain: T1 chain with P98Y, H124P

The target in data set [3] is T3, GFP-9S library array, motif 4 ND N98K;D124I (synthetic construct, N98K;D124I).
T3 chain: T1 chain with P98K, H124I

Data set [4] deals with T4, GFP-9S library array, motif 4 ND N98D;D124T (synthetic construct, N98D;D124T).
T4 chain: T1 chain with P98D, H124T

In data set [5] the target is T5, GFP-9S library array, motif 4 ND N98C;D124T (synthetic construct, N98C;D124T).
T5 chain: T1 chain with P98C, H124T

Where a chain is given by its changes, count along the chain named.

One may read the Kd as the equilibrium constant for the complex coming apart. A low value points to higher affinity.

Regarding AUUAGACGUGA (ssRNA) [Cy5-rpoA-G], the Kd was 143 nM in data set [1] (label: 5' Cy5); 110 nM in data set [2] (label: 5' Cy5); 167 nM in data set [3] (label: 5' Cy5); 106 nM in data set [4] (label: 5' Cy5); 85.3 nM in data set [5] (label: 5' Cy5).
Taken in the same sequence, the figures for AUUACACGUGA (ssRNA) [Cy5-rpoA] were 94.4 nM, 106 nM, 130 nM, 123 nM and 245 nM.
Take AUUAUACGUGA (ssRNA) [IR-rpoA-U]: the equilibrium dissociation constant (Kd) in data set [1] (label: 5' IRDye 800CW) worked out at 143 nM; in data set [2] (label: 5' IRDye 800CW), 160 nM; in data set [3] (label: 5' IRDye 800CW), 252 nM; in data set [4] (label: 5' IRDye 800CW), 301 nM; in data set [5] (label: 5' IRDye 800CW), 155 nM.
Taken in the same sequence, the figures for AUUAAACGUGA (ssRNA) [IR-rpoA-A] were 332 nM, 219 nM, 560 nM, 320 nM and 150 nM.

The values above are taken from paper PMC8809517, “Cofactor-independent RNA editing by a synthetic S-type PPR protein”.
